In test [1] the target is Fructose 1,6-bisphosphatase II from Francisella tularensis (glpX gene product) (Francisella tularensis). As to the kind of experiment: SEC.
Test [2] has the same target. As to the kind of experiment: SEC. The source holds these as a separate data set.

Among the data in PMC5698383 (Applied Biochemistry and Biotechnology, 2017) are stoichiometry N values, retold here.

Where two headings read alike, the source gives them in different places.

With “Fructose 1,6-bisphosphatase II from Francisella tularensis (glpX gene product) (enzyme)”, the figures for the stoichiometry N in test [1] and in test [2] were 2 and 4, respectively.
